Laboratory results: patent publication US20140242083A1 (Hoffmann-La Roche, published 2014)

Columns and labels:
[1] = target: T1, Construct 1 (CSPG repeat 15 of human MCSP with the natural transmembrane domain) (human, UniProt Q6UVK1 2044-2246); test: FACS titration of LC007 on HEK-EBNA cells transfected with the construct; mock-transfected cells as control
T1 construct: Expressed on HEK-EBNA cells; contains the original transmembrane region; also called MCSP repeat 15 construct
T1 sequence: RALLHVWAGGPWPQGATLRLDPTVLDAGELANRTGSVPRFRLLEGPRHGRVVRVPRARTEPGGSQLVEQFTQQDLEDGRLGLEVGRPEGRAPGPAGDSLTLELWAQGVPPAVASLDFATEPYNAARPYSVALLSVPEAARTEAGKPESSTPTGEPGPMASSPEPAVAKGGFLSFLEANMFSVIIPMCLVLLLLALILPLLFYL

[2] = target: T2, human MCSP (melanoma chondroitin sulfate proteoglycan) on melanoma cells (human, UniProt Q6UVK1 30-2322); test: FACS titration on A375 melanoma cells, FITC anti-human IgG Fc secondary antibody
T2 construct: Native MCSP on the human melanoma lines Colo38, A2058 and A375; also called surface MCSP; CSPG4
Method: (§1) Binding activity was determined by the following method. Target cells were detached from culture flask with cell dissociation buffer, counted and checked for viability. Cells were resuspended and adjusted to 1.111×10⁶ (viable) cells/ml in PBS-0.1% BSA. 180 μl of this suspension were transferred to each well (200,000 cells/well) in a round bottom 96-well-plate, centrifuged for 4 min, at 400 g, and resuspended. 20 μl of antibody dilutions in PBS-0.1% BSA (from 10 μg/ml to […]) were added to each well. The samples were centrifuged for 4 min, at 400 g, and resuspended. Secondary antibody, FITC-conjugated AffiniPure F(ab′)2 fragment goat anti-human IgG Fcg Fragment Specific (Jackson Immuno Research Lab #109-096-098)), was added and the sample centrifuged for 4 min, at 400 g, and resuspended. Fluorescence was measured in flow cytometer (e.g. FACS Canto II). Antibody 9.2.27, described in Morgan A C Jr, Galloway D R, Reisfeld R A. Hybridoma. 1981; 1(1):27-36.; GenBank Accession Numbers: GI:20797193 and GI:20797189 for light and heavy chain respectively, was used as a reference (FIG. 2). Human melanoma cell-lines Colo38, A2058, and A375 were used. Giacomini et al. 1985 (for Colo38). Marquardt H, Todaro G J. J Biol. Chem. 1982 May 10; 257(9):5220-5 (for A2058). Geiser M, Schultz D, Le Cardinal A, Voshol H, Garcia-Echeverria C. Cancer Res. 1999 Feb. 15; 59(4):905-10 (for A375).

[3] = target: T3, Construct 4 (CSPG repeat 12-15 of human MCSP) (human, UniProt Q6UVK1 1702-2246); test: FACS titration of LC007 on HEK-EBNA cells transfected with the construct; mock-transfected cells and isotype as controls
T3 construct: Expressed on HEK-EBNA cells; contains the original transmembrane region
T3 sequence: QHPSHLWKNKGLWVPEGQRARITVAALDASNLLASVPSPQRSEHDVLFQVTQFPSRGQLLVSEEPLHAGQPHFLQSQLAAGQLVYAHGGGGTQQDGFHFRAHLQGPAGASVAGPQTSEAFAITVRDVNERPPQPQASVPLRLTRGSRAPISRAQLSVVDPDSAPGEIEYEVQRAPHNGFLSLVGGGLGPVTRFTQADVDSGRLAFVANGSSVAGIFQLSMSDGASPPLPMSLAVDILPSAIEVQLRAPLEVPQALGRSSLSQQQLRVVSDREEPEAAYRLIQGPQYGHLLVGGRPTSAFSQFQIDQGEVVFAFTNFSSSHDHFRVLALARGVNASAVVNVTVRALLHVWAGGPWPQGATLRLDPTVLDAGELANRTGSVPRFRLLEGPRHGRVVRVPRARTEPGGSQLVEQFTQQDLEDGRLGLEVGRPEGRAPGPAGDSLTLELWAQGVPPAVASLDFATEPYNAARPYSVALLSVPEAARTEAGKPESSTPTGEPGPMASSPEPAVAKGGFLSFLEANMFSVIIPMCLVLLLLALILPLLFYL

[4] = target: T2, human MCSP (melanoma chondroitin …); test: FACS titration on A2058 melanoma cells, FITC anti-human IgG Fc secondary antibody
Method: as §1

[5] = target: T4, cynomolgus MCSP D3 domain expression construct (C-terminal part, N-terminal FLAG-tag) in HEK-EBNA cells (cynomolgus, UniProt Q6UVK1 1582-2224 (human entry), limits assumed); test: flow cytometry titration of LC007 on HEK-EBNA cells expressing the construct; untreated EBNA cells as control
T4 construct: Tested by flow cytometry on transfected cells; the membrane anchor is not described; also called cynomolgus construct; cynomolgus antigen
T4 chain: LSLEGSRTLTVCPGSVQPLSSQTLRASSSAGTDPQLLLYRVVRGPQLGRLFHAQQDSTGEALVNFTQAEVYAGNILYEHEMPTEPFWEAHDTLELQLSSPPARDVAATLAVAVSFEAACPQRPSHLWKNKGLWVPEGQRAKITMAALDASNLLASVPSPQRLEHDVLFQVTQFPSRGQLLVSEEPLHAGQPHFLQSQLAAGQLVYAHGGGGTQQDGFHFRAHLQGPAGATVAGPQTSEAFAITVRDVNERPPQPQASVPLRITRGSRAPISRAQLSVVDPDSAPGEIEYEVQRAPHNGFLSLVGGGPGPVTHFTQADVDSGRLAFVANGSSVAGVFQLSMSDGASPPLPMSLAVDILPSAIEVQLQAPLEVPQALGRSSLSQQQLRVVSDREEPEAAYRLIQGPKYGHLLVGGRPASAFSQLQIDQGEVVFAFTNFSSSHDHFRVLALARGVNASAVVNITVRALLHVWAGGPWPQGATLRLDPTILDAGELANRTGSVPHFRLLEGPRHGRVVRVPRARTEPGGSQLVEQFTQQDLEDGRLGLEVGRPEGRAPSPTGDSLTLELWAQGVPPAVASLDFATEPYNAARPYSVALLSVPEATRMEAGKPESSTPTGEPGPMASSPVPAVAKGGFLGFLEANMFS

[6] = target: T5, human MCSP D3 domain expression construct (C-terminal part, N-terminal FLAG-tag) in HEK-EBNA cells (human, UniProt Q6UVK1 1582-2224, limits assumed); test: as above
T5 construct: 'A similar construct' to the cynomolgus one; it is not clear whether the signal peptide and FLAG-tag are part of it; also called corresponding human expression construct; human counterpart
T5 sequence: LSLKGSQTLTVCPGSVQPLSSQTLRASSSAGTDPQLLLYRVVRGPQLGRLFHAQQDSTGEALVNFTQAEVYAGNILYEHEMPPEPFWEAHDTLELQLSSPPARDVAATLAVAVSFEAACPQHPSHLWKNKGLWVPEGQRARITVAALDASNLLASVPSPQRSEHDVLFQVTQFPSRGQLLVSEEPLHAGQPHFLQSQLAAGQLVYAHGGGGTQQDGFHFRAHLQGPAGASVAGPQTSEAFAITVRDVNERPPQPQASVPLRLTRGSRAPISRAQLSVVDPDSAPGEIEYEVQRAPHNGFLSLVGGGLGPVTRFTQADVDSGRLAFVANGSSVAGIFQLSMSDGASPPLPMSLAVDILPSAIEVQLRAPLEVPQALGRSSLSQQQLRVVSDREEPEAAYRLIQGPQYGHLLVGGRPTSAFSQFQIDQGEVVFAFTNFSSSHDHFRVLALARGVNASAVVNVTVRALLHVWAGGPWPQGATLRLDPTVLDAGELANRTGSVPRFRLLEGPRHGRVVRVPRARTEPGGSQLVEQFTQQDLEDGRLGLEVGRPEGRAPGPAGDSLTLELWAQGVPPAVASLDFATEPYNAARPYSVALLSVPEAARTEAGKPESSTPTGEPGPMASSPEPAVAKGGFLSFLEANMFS

[7] = target: T2, human MCSP (melanoma chondroitin …); test: FACS titration on Colo38 melanoma cells, FITC anti-human IgG Fc secondary antibody
Method: as §1

T2 sequence (Q6UVK1 30-2322 limits assumed): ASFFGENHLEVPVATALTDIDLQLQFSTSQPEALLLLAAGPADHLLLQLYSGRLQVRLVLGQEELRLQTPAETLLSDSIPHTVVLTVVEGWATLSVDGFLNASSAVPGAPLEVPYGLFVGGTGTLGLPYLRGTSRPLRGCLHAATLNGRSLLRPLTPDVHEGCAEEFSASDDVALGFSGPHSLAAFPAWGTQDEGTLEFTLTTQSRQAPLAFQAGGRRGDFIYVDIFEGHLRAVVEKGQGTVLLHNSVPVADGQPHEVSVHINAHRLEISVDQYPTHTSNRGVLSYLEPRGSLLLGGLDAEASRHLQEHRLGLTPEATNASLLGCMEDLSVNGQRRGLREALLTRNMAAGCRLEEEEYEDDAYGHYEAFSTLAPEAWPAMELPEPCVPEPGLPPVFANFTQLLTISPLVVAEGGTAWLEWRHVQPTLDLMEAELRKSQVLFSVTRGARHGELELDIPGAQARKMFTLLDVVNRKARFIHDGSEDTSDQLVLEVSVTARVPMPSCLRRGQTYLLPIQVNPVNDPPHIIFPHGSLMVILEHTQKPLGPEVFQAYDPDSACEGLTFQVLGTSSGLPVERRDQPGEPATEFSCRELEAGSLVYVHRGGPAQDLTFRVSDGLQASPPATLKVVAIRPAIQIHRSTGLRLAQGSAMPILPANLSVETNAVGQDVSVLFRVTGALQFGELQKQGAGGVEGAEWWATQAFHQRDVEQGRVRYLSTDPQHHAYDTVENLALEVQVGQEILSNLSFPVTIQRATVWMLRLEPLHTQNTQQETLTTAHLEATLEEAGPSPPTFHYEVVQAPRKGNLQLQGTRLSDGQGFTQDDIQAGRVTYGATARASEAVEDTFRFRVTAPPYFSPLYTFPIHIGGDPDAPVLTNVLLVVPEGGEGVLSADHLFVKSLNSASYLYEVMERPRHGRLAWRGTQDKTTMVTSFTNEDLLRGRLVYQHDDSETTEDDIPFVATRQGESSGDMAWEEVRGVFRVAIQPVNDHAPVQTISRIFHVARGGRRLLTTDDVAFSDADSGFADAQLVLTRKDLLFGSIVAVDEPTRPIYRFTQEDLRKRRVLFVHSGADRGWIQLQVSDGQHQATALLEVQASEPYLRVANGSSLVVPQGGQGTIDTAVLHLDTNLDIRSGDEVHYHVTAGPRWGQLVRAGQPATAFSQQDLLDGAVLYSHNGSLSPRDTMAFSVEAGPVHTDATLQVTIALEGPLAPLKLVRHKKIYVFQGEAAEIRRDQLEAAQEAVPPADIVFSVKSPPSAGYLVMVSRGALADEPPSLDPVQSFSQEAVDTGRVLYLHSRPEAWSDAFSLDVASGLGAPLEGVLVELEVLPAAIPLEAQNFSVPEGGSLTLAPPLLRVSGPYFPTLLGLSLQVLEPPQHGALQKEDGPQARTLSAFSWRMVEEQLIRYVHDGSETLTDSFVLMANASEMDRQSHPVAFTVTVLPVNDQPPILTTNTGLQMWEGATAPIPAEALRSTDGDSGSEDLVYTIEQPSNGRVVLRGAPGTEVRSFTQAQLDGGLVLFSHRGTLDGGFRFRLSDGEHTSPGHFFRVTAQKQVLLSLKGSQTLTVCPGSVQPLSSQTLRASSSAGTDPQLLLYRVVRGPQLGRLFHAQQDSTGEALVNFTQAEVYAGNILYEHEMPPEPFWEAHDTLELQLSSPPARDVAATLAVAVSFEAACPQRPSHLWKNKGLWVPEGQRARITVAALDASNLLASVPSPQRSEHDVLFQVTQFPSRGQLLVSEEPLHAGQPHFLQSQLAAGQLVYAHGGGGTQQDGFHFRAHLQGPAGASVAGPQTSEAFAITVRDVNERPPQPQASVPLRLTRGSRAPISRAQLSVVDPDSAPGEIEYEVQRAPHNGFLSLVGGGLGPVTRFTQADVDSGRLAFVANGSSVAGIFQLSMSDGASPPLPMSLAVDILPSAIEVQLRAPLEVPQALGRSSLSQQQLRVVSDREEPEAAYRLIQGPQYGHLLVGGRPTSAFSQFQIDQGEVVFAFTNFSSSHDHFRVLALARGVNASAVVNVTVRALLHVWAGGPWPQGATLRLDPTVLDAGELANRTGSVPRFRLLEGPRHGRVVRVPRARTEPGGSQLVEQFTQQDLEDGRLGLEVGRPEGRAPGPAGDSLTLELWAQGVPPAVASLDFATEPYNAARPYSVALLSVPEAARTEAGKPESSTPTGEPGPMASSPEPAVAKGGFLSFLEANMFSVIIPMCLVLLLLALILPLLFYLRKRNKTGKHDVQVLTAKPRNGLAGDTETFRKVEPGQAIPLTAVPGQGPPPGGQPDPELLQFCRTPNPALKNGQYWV

binding result [1]: no binding (tested: 5 ug/ml) | EC50 (read off the curve) [2]: ~0.05 µg/mL | EC50 (read off the curve) [3]: ~0.3 µg/mL | EC50 (read off the curve) [4]: ~0.03 µg/mL | EC50 (read off the curve) [5]: ~0.1 µg/mL | EC50 (read off the curve) [6]: ~0.08 µg/mL | EC50 (read off the curve) [7]: ~0.05 µg/mL
B1: chimeric antibody LC007 (antibody, human IgG1, kappa, V domains shown)
VH: EVQLQESGPGLVKPSQSLSLTCSVTGYSITSGYYWNWIRQFPGNKLEWMGYITYDGSNNYNPSLKNRISITRDTSKNQFFLKLNSVTTEDTATYYCADFDYWGQGTTLTVSS
VL: DIVLTQSPSSLSASLGDRVTISCSASQGIRNYLNWYQQRPDGTVKLLIYYTSSLHSGVPSRFSGSGSGTDYSLTISNLEPEDIATYYCQQYSKLPWTFGGGTKLEIKR
notes: all such entries are written under the chimeric antibody; also called LC007 antibody; LC007 wt
